This is an account of results in publication PMC5352116.

This assay concerns the target Death Receptor 5 (DR5) (human (endogenous in MCF-10A-Tr)), O14763. Put plainly: co-IP; DISC analysis: MCF-10A-Tr cells untreated or treated with QC, TRAIL or TRAIL (10 ng/mL, 3 h) then QC (2.5 uM, 48 h); RIPA lysate, pre-cleared with sepharose-4B beads, immunoprecipitated with anti-DR5 antibody at 4°C overnight; western blot. As to conditions: remark: other sources report otherwise. For orientation: In western blotting, separated proteins are transferred to a membrane and probed.

B1: CASPASE 8, Q14790 1-479 (enzyme)
chain: MDFSRNLYDIGEQLDSEDLASLKFLSLDYIPQRKQEPIKDALMLFQRLQEKRMLEESNLSFLKELLFRINRLDLLITYLNTRKEEMERELQTPGRAQISAYRVMLYQISEEVSRSELRSFKFLLQEEISKCKLDDDMNLLDIFIEMEKRVILGEGKLDILKRVCAQINKSLLKIINDYEEFSKERSSSLEGSPDEFSNGEELCGVMTISDSPREQDSESQTLDKVYQMKSKPRGYCLIINNHNFAKAREKVPKLHSIRDRNGTHLDAGALTTTFEELHFEIKPHDDCTVEQIYEILKIYQLMDHSNMDCFICCILSHGDKGIIYGTDGQEAPIYELTSQFTGLKCPSLAGKPKVFFIQACQGDNYQKGIPVETDSEEQPYLEMDLSSPQTRYIPDEADFLLGMATVNNCVSYRNPAEGTWYIQSLCQSLRERCPRGDDILTILTEVNYEVSNKDDKKNMGKQMPQPTFTLRKKLVFPSD
In the case of B1, the fold level in the DISC (anti-DR5 immunoprecipitate), TRAIL+QC treated against untreated cells was 7 fold.
